Assay results reported in the supplement of paper PMC12764529.
± gives the half width of the 95% confidence interval.

Key:
[1] = folding stability dG unfold from trypsin proteolysis; higher = more stable
Summary of the method: (§1)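 Designed mini-proteins with no cysteine and under 80 residues were kept only if AlphaFold2 dimer inter-PAE was above 15. In a PA-tagged cDNA display construct, they were digested with trypsin and chymotrypsin and then sequenced. K50 was inferred by Bayesian fitting of counts, and unfolding free energy was derived per protease or combined against a sequence-predicted unfolded-state K50 and a shared folded-state K50.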

[2] = folding stability dG unfold from chymotrypsin proteolysis; higher = more stable
Summary of the method: as §1

[3] = folding stability dG unfold (combined trypsin and chymotrypsin); higher = more stable
Summary of the method: as §1

Row | Sequence | folding stability dG unfold [1] [kcal/mol] | folding stability dG unfold [2] [kcal/mol] | folding stability dG unfold [3] [kcal/mol]
1 | SAGGSAGGSAGGNPGGKRQWVMMEFPIPPGKKIELPPNFNVSIFRDNDRLWLMITVDAVKSAGGSAGGSAGG [r7_584_TrROS] | 1.7 ± 0.07 | 1.88 ± 0.06 | 1.9 ± 0.11
2 | SAGGSAGGSAGGNVITVFIPNYQIITIHLSPEPGRIPIEVYPPNGKKEEWPIPDIKELIQSAGGSAGGSAGG [r7_769_TrROS] | 1.6 ± 0.13 | -0.306 ± 0.14 | 1.01 ± 0.13
3 | SAGGSAGGSAGGNVRLTVTLDENGRLRVTAEVEVTNENGEKKTYRLTLTLKLKPGQTLTSAGGSAGGSAGGS [r10_763_TrROS_Hall] | 2.9 ± 0.054 | 3.863 ± 0.024 | 3.55 ± 0.13
4 | SAGGSAGGSAGGNVRNLDISLDPEEGTIKIKATLPENGQTWEITIPVQIPLPPPPPGDNSAGGSAGGSAGGS [r10_331_TrROS] | 0.49 ± 0.1 | 0.502 ± 0.12 | 0.424 ± 0.29
5 | SAGGSAGGSAGGNWVMIEFNFPPGKKLKIEIPNGRDIQRHRDPDNGTLWFMIPPEAAEDFSAGGSAGGSAGG [r7_155_TrROS] | 0.649 ± 0.11 | 0.509 ± 0.26 | 0.636 ± 0.27
6 | SAGGSAGGSAGGNYFMMVVLEIRLPPELKGMSPEEWLKKNGYEVTEIEIKGIYPFPPPDGSAGGSAGGSAGG [r7_62_TrROS] | 2.02 ± 0.12 | 3.31 ± 0.062 | 2.9 ± 0.1
7 | SAGGSAGGSAGGPANLNDEPVLLIPVSSELLKLIPAEKLVELAAKLASPNVKRIYVLAPESAGGSAGGSAGG [r7_487_TrMRF] | 0.12 ± 0.11 | 0.58 ± 0.13 | 0.424 ± 0.088
8 | SAGGSAGGSAGGPEEPEKLTLRVTLTFYNPETQEPVEEVEVEITLTAEDLKEGKITITPSAGGSAGGSAGGS [r10_672_TrROS_Hall] | 1.54 ± 0.043 | 2.85 ± 0.07 | 2.32 ± 0.13
9 | SAGGSAGGSAGGPEIELLEDVKPGEFVVIKVKLKDADGNEVTATFVFYNGEWYLTKIEPSAGGSAGGSAGGS [r10_288_TrROS_Hall] | 2.92 ± 0.14 | 4.73 ± 0.063 | 4.54 ± 0.2
10 | SAGGSAGGSAGGPEVERFRIPGDNVLVEVVRLEDERIARITFPDGSQLTVPLPPGWEAFSAGGSAGGSAGGS [r10_976_TrMRF] | 0.853 ± 0.031 | 0.851 ± 0.13 | 0.948 ± 0.097
11 | SAGGSAGGSAGGPEVTLRLRLEVEVRVVVLKDGKLEEKTFRFELEVEVRFEPGMSLEELSAGGSAGGSAGGS [r10_633_TrROS_Hall] | 3.23 ± 0.15 | 4.09 ± 0.086 | 3.91 ± 0.075
12 | SAGGSAGGSAGGPILKITLELSPEEIEELAKALGLKVKKVEKEKNKDGKLRVTIYIELKSAGGSAGGSAGGS [r10_999_TrROS_Hall] | 2.12 ± 0.085 | 3.24 ± 0.057 | 2.81 ± 0.078
13 | SAGGSAGGSAGGPKTVRIVEYDPETQRVVIELEDGSKVVIEVPPGMSVEELKGKTLTVEPSAGGSAGGSAGG [r7_296_TrROS_Hall] | 1.79 ± 0.051 | 0.569 ± 0.1 | 1.14 ± 0.17
14 | SAGGSAGGSAGGPKVEIVEVTVEGDKVTIRVKNEETGEWVTLEVTLKDLPKVTFVLKPKSAGGSAGGSAGGS [r10_655_TrROS_Hall] | 1.17 ± 0.032 | 1.16 ± 0.19 | 1.19 ± 0.11
